Experimental findings from patent US20060204974A1 are described below.

This experiment has as its target rat angiotensin type 1a receptor (AT1aR) (rat) (UniProt P25095). Briefly: cell-based or functional assay.
Chain of UniProt P25095 (P25095 whole entry): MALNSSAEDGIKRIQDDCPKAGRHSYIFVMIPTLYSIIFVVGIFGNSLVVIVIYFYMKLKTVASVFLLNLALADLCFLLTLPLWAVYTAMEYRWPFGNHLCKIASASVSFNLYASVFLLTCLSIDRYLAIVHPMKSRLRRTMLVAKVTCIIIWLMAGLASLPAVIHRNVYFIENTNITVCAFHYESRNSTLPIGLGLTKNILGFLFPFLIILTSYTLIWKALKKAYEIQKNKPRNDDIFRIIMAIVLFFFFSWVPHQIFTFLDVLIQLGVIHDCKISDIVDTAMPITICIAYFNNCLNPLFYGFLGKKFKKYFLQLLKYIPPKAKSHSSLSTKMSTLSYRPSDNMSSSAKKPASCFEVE

For the substance “Angiotensin II (from UniProt P01019 25-476) (peptide)”, the Ang II (100 nM) stimulated inositol phosphate production, Ang II-basal (cpm), CHO cells stably expressing E1,2,3 is 260 cpm; the Ang II (100 nM) stimulated inositol phosphate production, Ang II-basal (cpm), CHO cells stably expressing E1,3 amounted to 1320 cpm; the Ang II-induced IP production (cpm), 100 nM Ang II, CHO clones stably expressing QM was 1640 cpm; the Ang II-induced IP production (cpm), 100 nM Ang II, CHO clones stably expressing WT worked out at 322 cpm. The angiotensin II/basal inositol phosphate accumulation, 100 nM angiotensin II for 20 min, A10 cells transiently transfected with E2 plasmid (ratio (angiotensin II/basal)) came to 1.35 and the angiotensin II/basal inositol phosphate accumulation, 100 nM angiotensin II for 20 min, A10 cells transiently transfected with ΔE2 plasmid (ratio (angiotensin II/basal)) was 1.8.
